In patent US20200140551A1 (GlaxoSmithKline, published 2020):
Numbering of substitutions follows the chain as printed.

Tests used:
[1] = target: T1, human ICOS on human T cells (human, UniProt Q9Y6W8 21-167); assay: flow cytometry, activated human CD4 T cells, FITC MFI, donor 1149M52
T1 construct: endogenous receptor on primary cells; also called ICOS on CD4+ and CD8+ T cells of healthy human donors
T1 sequence: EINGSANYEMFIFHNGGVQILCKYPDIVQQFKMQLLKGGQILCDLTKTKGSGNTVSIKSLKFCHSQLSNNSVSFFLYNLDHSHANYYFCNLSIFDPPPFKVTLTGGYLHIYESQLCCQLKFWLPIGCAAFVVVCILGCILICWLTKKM
Procedure: (§1) Binding of H2L5 hIgG4PE was assessed in both naive and activated CD3+ T cells.
(§2) Either naive and/or activated CD3+ T cells were re-suspended in PBS with 0.1% BSA (FACS Buffer) containing Human FcR Blocking Solution at 2×10⁶ cells/mL (5 μl FcR Blocking Solution+[…] FACS Buffer per 1 mL). At a concentration of 2×10⁵ cells/well, 100 μl cells were placed into 2 mL 96 well Assay Blocks and incubated at room temperature for 15 minutes. During the incubation, a titration of the binding antibodies, anti-ICOS (H2L5 hIgG4PE) or IgG4 Isotype Control antibody was prepared as a 2× concentration. […] Following the binding incubation, cells were washed twice in 1 mL of FACS buffer, centrifuging at 400×g for 5 minutes at room temperature.
(§3) Data acquisition and compensation were performed on BD FACS instruments, LSR Fortessa X-20 or FACS Canto II using BD Diva (ver. 8.0) software. Data analysis employed Flow Jo software (ver.10.0.8r1). Results are reported as both MFI (Median Fluorescence Intensity) and Percent of cells positive for human IgG kappa light chain FITC staining out of the total live cells or appropriate parent population. EC50s were determined using Graphpad Prism 5 software (ver. 5.04) with non-linear regression of transformed data (X=(log(X)) using a variable slope with 4 parameters (log(Agonist) vs. response—Variable slope).

[2] = target: T1, human ICOS on human T cells; assay: flow cytometry, activated human CD4 T cells, FITC MFI, donor 1173F42
Procedure: as §2, §3

[3] = target: T1, human ICOS on human T cells; assay: flow cytometry, activated human CD8 T cells, FITC MFI, donor 1149M52
Procedure: as §1, §2, §3

[4] = target: T1, human ICOS on human T cells; assay: flow cytometry, activated human CD8 T cells, FITC MFI, mean of donors
Procedure: as §1, §2, §3

human FcγR IIa H131 = target: T2, human FcγR IIa H131 (human, UniProt P12318 36-218, limits assumed); assay: affinity to human Fcγ receptors (Table 6; NB = no binding); method not described
T2 sequence (looked up): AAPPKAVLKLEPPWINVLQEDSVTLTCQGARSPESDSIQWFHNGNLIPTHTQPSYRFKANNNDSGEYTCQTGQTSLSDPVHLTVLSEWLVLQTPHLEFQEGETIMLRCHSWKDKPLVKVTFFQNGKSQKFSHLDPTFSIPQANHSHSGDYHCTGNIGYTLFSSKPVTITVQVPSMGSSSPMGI

human FcγR IIIa V158 = target: T3, human FcγR IIIa V158 (human, UniProt P08637 17-208); assay: as above
T3 construct: allotype with Val at position 158 as printed
T3 sequence (P08637 17-208 F176V limits assumed): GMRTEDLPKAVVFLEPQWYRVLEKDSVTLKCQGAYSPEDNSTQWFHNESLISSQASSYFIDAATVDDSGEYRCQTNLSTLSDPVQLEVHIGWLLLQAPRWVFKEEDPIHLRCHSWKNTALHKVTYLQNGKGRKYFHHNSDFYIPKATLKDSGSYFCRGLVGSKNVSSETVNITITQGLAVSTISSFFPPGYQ

human FcγR IIIa F158 = target: T4, human FcγR IIIa F158 (human, UniProt P08637 17-208); assay: as above
T4 construct: allotype with Phe at position 158 as printed
T4 sequence (P08637 17-208 limits assumed): as the sequence (P08637 17-208 F176V limits assumed) above, with V160F counted along it

[5] = target: T1, human ICOS on human T cells; assay: flow cytometry, activated human CD4 T cells, percent FITC positive, donor 1149M52
Procedure: as §1, §2, §3

[6] = target: T1, human ICOS on human T cells; assay: flow cytometry, activated human CD4 T cells, percent FITC positive, donor 1173F42
Procedure: as §1, §2, §3

[7] = target: T1, human ICOS on human T cells; assay: flow cytometry, activated human CD8 T cells, percent FITC positive, donor 1149M52
Procedure: as §1, §2, §3

[8] = target: T1, human ICOS on human T cells; assay: flow cytometry, activated human CD8 T cells, percent FITC positive, median of donors
Procedure: as §1, §2, §3

Human ICOS -Fc = target: T5, Human ICOS -Fc (human; rabbit, UniProt Q9Y6W8 21-140); assay: SPR, BIAcore T200; antibody captured on anti-human IgG (CM5), ICOS (rabbit Fc) as analyte at 1-256 nM, 25°C, 1:1 model
T5 construct: analyte in the BIAcore T200 run; also called Human ICOS (rabbit Fc); not shown: rabbit Fc
T5 sequence: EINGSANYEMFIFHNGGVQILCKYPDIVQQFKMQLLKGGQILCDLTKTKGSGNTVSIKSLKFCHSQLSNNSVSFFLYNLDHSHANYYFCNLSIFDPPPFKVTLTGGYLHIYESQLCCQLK
Procedure: (§4) The binding kinetics affinity of the humanized H2L5 hIgG4PE antibody was determined used the BIAcore T200 Anti-human IgG on Fc2 of a CM5 chip Anti-ICOS H2L5 hIgG4PE captured on the surface. Anti-human IgG surface blocked with […] hIgG1 control to prevent non-specific binding of rabbit Fc. Human and cyno ICOS (rabbit Fc) passed over the captured antibodies at 256 nM, 64 nM, 16 nM, 4 nM and 1 nM. Buffer alone was used to double reference binding curves. MgCl₂ was used to regenerate surface. Run carried out at 25° C. Data fitted to 1:1 model using T200 evaluation software. Antibody concentration: 2.5 μg/mL
(§5) The ICOS binding data was fitted to a 1:1 kinetics model using the T200 data analysis software.

Cyno ICOS-Fc = target: T6, Cyno ICOS-Fc (cynomolgus; rabbit, UniProt A0A2K5TQR6 21-140); assay: as above
T6 construct: analyte in the BIAcore T200 run; also called cyno ICOS (rabbit Fc); cynomolgus ICOS; not shown: Rabbit Fc and any linker
T6 sequence: T5 sequence with H81R
Procedure: as §4, §5

B1: H2L5 hIgG4PE (antibody)
heavy: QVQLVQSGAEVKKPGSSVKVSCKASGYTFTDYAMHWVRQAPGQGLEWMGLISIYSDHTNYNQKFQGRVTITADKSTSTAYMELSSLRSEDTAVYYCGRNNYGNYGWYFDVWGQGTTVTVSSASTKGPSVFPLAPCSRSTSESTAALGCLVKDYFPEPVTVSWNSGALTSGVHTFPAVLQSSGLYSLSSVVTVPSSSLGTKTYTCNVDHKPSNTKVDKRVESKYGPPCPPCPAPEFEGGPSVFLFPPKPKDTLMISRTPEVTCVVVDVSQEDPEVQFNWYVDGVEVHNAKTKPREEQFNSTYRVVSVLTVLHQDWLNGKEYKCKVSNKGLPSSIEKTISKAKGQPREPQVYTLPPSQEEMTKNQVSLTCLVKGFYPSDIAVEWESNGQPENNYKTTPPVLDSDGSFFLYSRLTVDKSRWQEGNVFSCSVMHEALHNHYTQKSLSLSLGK
light: EIVLTQSPATLSLSPGERATLSCSASSSVSYMHWYQQKPGQAPRLLIYDTSKLASGIPARFSGSGSGTDYTLTISSLEPEDFAVYYCFQGSGYPYTFGQGTKLEIKRTVAAPSVFIFPPSDEQLKSGTASVVCLLNNFYPREAKVQWKVDNALQSGNSQESVTEQDSKDSTYSLSSTLTLSKADYEKHKVYACEVTHQGLSSPVTKSFNRGEC
notes: also called 422 H2L5 hIgG4PE; H2L5 IgG4PE; copies: 2 + 2
[1]
  EC50: 1.31 mg/L
[2]
  EC50: 0.636 mg/L
[3]
  EC50: 0.74 mg/L
[4]
  EC50: 0.525 mg/L
Human FcγR IIa H131
  binding result: no binding
Human FcγR IIIa V158
  binding result: no binding
Human FcγR IIIa F158
  binding result: no binding
[5]
  EC50: 0.882 mg/L
[6]
  EC50: 0.612 mg/L
[7]
  EC50: 0.547 mg/L
[8]
  EC50: 0.583 mg/L
Human ICOS -Fc
  Kd: 1.34 nM
  koff: 0.000396 s⁻¹
  kon: 297000 M⁻¹ s⁻¹
Cyno ICOS-Fc
  Kd: 0.949 nM
  koff: 0.000371 s⁻¹
  kon: 391000 M⁻¹ s⁻¹
